This is an account of results in US20210395344A1 (TWIST BIOSCIENCE, published 2021).

Read-outs that look alike come from different tables or passages of the source.

Usually IC50 stands for the point on the concentration scale where inhibition reaches its midpoint. Low readings indicate greater potency in that assay, high ones weaker potency in that assay. In general, kon refers to a measure of how fast the partners come together. Low values mean slower complex formation, high ones faster complex formation. By Kd is commonly meant the constant that tells how readily two partners part at equilibrium. Higher therefore signals lower affinity. What is called koff is the first-order rate constant of dissociation. Low readings indicate slow dissociation, high ones fast dissociation. For orientation: EC50 means the concentration needed to bring the measured effect to its halfway point. Low readings indicate an effect from little substance, high ones a need for much substance.

The target in one assay is human ACE2 (human, UniProt Q9BYF1 18-740).
Sequence of human ACE2 (Q9BYF1 18-740 limits assumed): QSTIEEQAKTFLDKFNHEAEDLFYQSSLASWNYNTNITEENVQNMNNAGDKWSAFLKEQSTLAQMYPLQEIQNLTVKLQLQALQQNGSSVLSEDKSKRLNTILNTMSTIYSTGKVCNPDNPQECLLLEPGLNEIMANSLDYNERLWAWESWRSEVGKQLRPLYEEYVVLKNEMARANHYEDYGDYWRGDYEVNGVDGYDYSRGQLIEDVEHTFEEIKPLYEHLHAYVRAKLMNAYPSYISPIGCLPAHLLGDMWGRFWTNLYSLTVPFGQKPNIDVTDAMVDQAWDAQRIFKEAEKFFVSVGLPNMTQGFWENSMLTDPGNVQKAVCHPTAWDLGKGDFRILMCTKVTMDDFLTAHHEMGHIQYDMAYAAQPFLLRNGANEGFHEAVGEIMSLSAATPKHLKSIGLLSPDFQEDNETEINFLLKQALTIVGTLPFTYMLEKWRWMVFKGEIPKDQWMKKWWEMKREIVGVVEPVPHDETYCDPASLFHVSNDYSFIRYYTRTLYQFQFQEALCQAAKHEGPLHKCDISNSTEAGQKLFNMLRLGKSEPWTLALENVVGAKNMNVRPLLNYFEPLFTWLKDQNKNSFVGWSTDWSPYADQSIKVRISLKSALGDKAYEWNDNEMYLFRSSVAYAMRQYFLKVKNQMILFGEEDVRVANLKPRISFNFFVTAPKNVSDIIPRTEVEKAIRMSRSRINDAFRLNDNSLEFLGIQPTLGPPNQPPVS
Assay [1] deals with T1, COVID S1 RBM Fc fusion (Antigen 2) (SARS-CoV-2, UniProt P0DTC2 437-508).
T1 construct: domain: RBM
The assay is described as follows: phage ELISA. On the technique in general: An ELISA detects its analyte on a solid surface through an enzyme-linked reagent.

Assay [2] concerns the target T2, COVID S1 RBD Fc fusion (Antigen 1) (SARS-CoV-2, UniProt P0DTC2 319-541).
T2 construct: domain: RBD
The assay is described as follows: phage ELISA.

The target of assay [3] is T3, S1-Fc (SARS-CoV-2, UniProt P0DTC2 16-685). The assay is described as follows: phage ELISA.
Assay [4] addresses T4, SARS-CoV-2 S1 (antigen of the Carterra SPR kinetics) (SARS-CoV-2, UniProt P0DTC2 16-685). The assay is described as follows: Carterra SPR.
The target of assay [5] is T1, COVID S1 RBM Fc fusion (Antigen 2). The assay is described as follows: phage ELISA. This is another data set of the same source.
Assay [6] concerns the target T2, COVID S1 RBD Fc fusion (Antigen 1). The assay is described as follows: phage ELISA. The source holds these as a separate data set.
In assay [7] the target is T3, S1-Fc. The assay is described as follows: phage ELISA. The source holds these as a separate data set.
Assay [8] addresses T4, SARS-CoV-2 S1 (antigen of the Carterra …). The assay is described as follows: Carterra SPR. The source holds these as a separate data set.
In assay [9] the target is T5, SARS-CoV-2 Spike Glycoprotein S1 (subunit 1) (SARS-CoV-2, UniProt P0DTC2 16-685).
T5 construct: also called S1 Monomer; SARS-CoV-2 S1
The assay is described as follows: screening phage ELISA, mean.

Assay [10] addresses T5, SARS-CoV-2 Spike Glycoprotein S1 …. The assay is described as follows: ELISA binding titration.
For assay [11] the target is unchanged. As to the kind of experiment: column Fc/S1 (format not explained).
Assay [12] has the same target. As to the kind of experiment: column DC/S1 (format not explained).
Assay [13] shares this target. The assay is described as follows: column Inhibitor IC50 (assay not explained).
Assay [14] has the same target. As to the kind of experiment: screening phage ELISA, mean. The source holds these as a separate data set.

B1: 4-147 (antibody, V domains shown)
VH: EVQLVESGGGLVQPGGSLRLSCAASGGTFSVYAMGWFRQAPGKEREGVAAISMSGDDAAYADSVKGRFTISADNSKNTAYLQMNSLKPEDTAVYYCAKISKDDGGKPRGAFFDSWGQGTLVTVSS
In the assay with human ACE2, B1 showed an IC50 of 68.3 nM.

B2: 4-139 (antibody, V domains shown)
VH: EVQLVESGGGLVQPGGSLRLSCAASGGGTFGSYAMGWFRQAPGKEREFVAAISIASGASGGTTNYADSVKGRFTISADNSKNTAYLQMNSLKPEDTAVYYCATTMNPNPRWGQGTLVTVSS
In the assay with human ACE2, B2 came in with an IC50 of 20.2 nM.

B3: 1-17 (antibody, V domains shown)
VH: EVQLLESGGGLVQPGGSLRLSCAASGFTFSSYAMYWVRQAPGKGLEWVSAISGSAGSTYYADSVKGRFTISRDNSKNTLYLQMNSLRAEDTAVYYCARDTNDFWSGYSIFDPWGQGTLVTVSS
VL: QSALTQPASVSGSPGQSITISCTGTSSDIGSYNLVSWYQQHPGKAPKLMIYEGTKRPSGVSNRFSGSKSGNTASLTISGLQAEDEADYYCCSYAGSRTYVFGGGTKLTVL
notes: also called variant 1-17
For B3, the “ELISA fold over background” value was 1.3 fold over background in assay [1]; 20.1 fold over background in assay [2]; 1.6 fold over background in the assay with S1-Fc [3]; 1.3 fold over background in assay [5]; 20.1 fold over background in assay [6]; 1.6 fold over background with S1-Fc [7]. For the same molecule, the kon in [4] and in assay [8] was 3.92e+08 M⁻¹ s⁻¹ in each case. For the same molecule, the Kd in assay [8] worked out at 67.1 nM.

B4: 1-42 (antibody, V domains shown)
VH: EVQLLESGGGLVQPGGSLRLSCAASGVTFSSYAMSWVRQAPGKGLEWVSAITGSGGSTYYADSVKGRFTISRDNSKNTLYLQMNSLRAEDTAVYYCAKHGSGTIFGVVIAKYYFDYWGQGTLVTVSS
VL: QSALTQPASVSGSPGQSITISCTGTSSDVGRYNLVSWYQQHPGKAPKLMIYEGGKRPSGVSNRFSGSKSGNTASLTISGLQAEDEADYYCCSYASSSTLVFGGGTKLTVL
notes: also called variant 1-42
Regarding B4, the “ELISA fold over background” value turned out to be 1 fold over background in assay [1]; 20.8 fold over background in [2]; 1.4 fold over background with S1-Fc [3]; 1 fold over background in [5]; 20.8 fold over background in assay [6]; 1.4 fold over background in the assay with S1-Fc [7]. In addition, the on-rate constant (kon) in [4] and in assay [8] was 9.1e+08 M⁻¹ s⁻¹ in each case. Besides, binding in assay [8] was characterised by a dissociation constant (Kd) of 113 nM.

B5: 4-124 (antibody, V domains shown)
VH: EVQLVESGGGLVQPGGSLRLSCAASGNIFTRNVMGWFRQAPGKEREFVAAITSSGSTNYADSVKGRFTISADNSKNTAYLQMNSLKPEDTAVYYCARPSSDLQGGVDYWGQGTLVTVSS
For B5, half-maximal inhibition with human ACE2 (IC50) required 54.4 nM.

B6: 4-119 (antibody, V domains shown)
VH: EVQLVESGGGLVQPGGSLRLSCAASGFAFSSYAMGWFRQAPGKEREWVATINGDDYTYYADSVKGRFTISADNSKNTAYLQMNSLKPEDTAVYYCVATPGGYGLWGQGTLVTVSS
In turn, B6 displayed an IC50 with human ACE2 of 4.37 nM.

B7: 1-23 (antibody, V domains shown)
VH: EVQLLESGGGLVQPGGSLRLSCAASGFTFSSYAISWVRQAPGKGLEWVSIISGSGGSTYYADSVKGRFTISRDNSKNTLYLQMNSLRAEDTAVYYCAREGYRDYLWYFDLWGQGTLVTVSS
VL: QSALTQPASVSGSPGQSITISCTGTSNDVGSYNLVSWYQQHPGKAPKLMIYEGNKRPSGVSNRFSGSKSGNTASLTISGLQAEDEADYYCCSYAGSYTVFGGGTKLTVL
notes: also called variant 1-23
Regarding B7, the “ELISA fold over background” value in assay [1] was determined as 1.6 fold over background; in assay [2], 3.6 fold over background; in the assay with S1-Fc [3], 1.6 fold over background; in assay [5], 1.6 fold over background; in [6], 3.6 fold over background; in the assay with S1-Fc [7] it was 1.6 fold over background. In addition, the koff in assay [4] and in assay [8] was 0.159 s⁻¹ throughout. Moreover, the kon in assay [4] and in [8] was 506000 M⁻¹ s⁻¹ throughout. In [8], this molecule displayed a Kd of 315 nM.

B8: 1-24 (antibody, V domains shown)
VH: EVQLLESGGGLVQPGGSLRLSCAASGFTFSSYAMNWVRQAPGKGLEWVSIISGSGGSTYYADSVKGRFTISRDNSKNTLYLQMNSLRAEDTAVYYCAREGYRDYLWYFDLWGQGTLVTVSS
VL: QSALTQPASVSGSPGQSITISCTGTSSDVGYYNLVSWYQQHPGKAPKLMIYEGNKRPSGVSNRFSGSKSGNTASLTISGLQAEDEADYYCCSYAGGSVVFGGGTKLTVL
notes: also called variant 1-24
On to B8, for which the “ELISA fold over background” value worked out at 1.3 fold over background in assay [1]; 11 fold over background in [2]; 1.1 fold over background with S1-Fc [3]; 1.3 fold over background in assay [5]; 11 fold over background in assay [6]; 1.1 fold over background in the assay with S1-Fc [7]. The kon in assay [4] and in [8] was 1.94e+08 M⁻¹ s⁻¹ in each case. Besides, in assay [8], the Kd was 75.5 nM.

B9: 1-31 (antibody, V domains shown)
VH: EVQLLESGGGLVQPGGSLRLSCAASGFTFSSYAMNWVRQAPGKGLEWVSAISGSGGSTFYADSVKGRFTISRDNSKNTLYLQMNSLRAEDTAVYYCTRPPYGDYGDYWGQGTLVTVSS
VL: QSALTQPASVSGSPGQSITISCTGTSSDVGKYNLVSWYQQHPGKAPKLMIYEGSQRPSGVSNRFSGSKSGNTASLTISGLQAEDEADYYCCSYAGSRTPVVFGGGTKLTVL
On to B9, for which the “ELISA (Avg)” value in assay [9] and in assay [14] was 20.7 throughout. The molecule further returned an EC50 in assay [10] of 0.203 nM. Also, the values for the Kd in assay [11] and in assay [12] were 17.5 nM and 14.4 nM, respectively. Half-maximal inhibition in assay [13] (IC50) was put at 9.2 nM.

B10: 1-10 (antibody, V domains shown)
VH: EVQLLESGGGLVQPGGSLRLSCAASGFTFSSYDMSWVRQAPGKGLEWVSVISGSGGSTYYADSVKGRFTISRDNSKNTLYLQMNSLRAEDTAVYYCAKGPLVGWYFDLWGQGTLVTVSS
VL: QSALTQPASVSGSPGQSITISCTGTSSNVGSYNLVSWYQQHPGKAPKLMIYEGTKRPSGVSNRFSGSKSGNTASLTISGLQAEDEADYYCCSYAGSSSFVVFGGGTKLTVL
notes: also called variant 1-10
Take B10: the “ELISA fold over background” value in assay [1] came to 1.1 fold over background; in assay [2], 17.4 fold over background; in the assay with S1-Fc [3], 1.3 fold over background; in [5] it was 1.1 fold over background; in [6] it was 17.4 fold over background; in the assay with S1-Fc [7] it was 1.3 fold over background. In addition, the koff in assay [4] and in assay [8] was 0.147 s⁻¹ in each case. In addition, the kon in assay [4] and in assay [8] was 1.04e+06 M⁻¹ s⁻¹ throughout. In addition, the Kd in assay [8] turned out to be 142 nM.

B11: 1-7 (antibody, V domains shown)
VH: EVQLLESGGGLVQPGGSLRLSCAASGFTFSSYDMSWVRQAPGKGLEWVSVISGSGGSTYYADSVKGRFTISRDNSKNTLYLQMNSLRAEDTAVYYCAKGPLVGWYFDLWGQGTLVTVSS
VL: QSALTQPASVSGSPGQSITISCTGTSSDFGSYNLVSWYQQHPGKAPKLMIYEGNKRPSGVSNRFSGSKSGNTASLTISGLQAEDEADYYCCSYAGSSTFVVFGGGTKLTVL
notes: also called variant 1-7
As to B11, the “ELISA fold over background” value is 1.6 fold over background in assay [1]; 3.3 fold over background in [2]; 1.7 fold over background with S1-Fc [3]; 1.6 fold over background in assay [5]; 3.3 fold over background in [6]; 1.7 fold over background in the assay with S1-Fc [7]. The koff in assay [4] and in [8] was 0.17 s⁻¹ each time. The kon in assay [4] and in [8] was 1.34e+06 M⁻¹ s⁻¹ throughout. For the same molecule, the Kd in [8] stood at 127 nM.

B12: 1-28 (antibody, V domains shown)
VH: EVQLLESGGGLVQPGGSLRLSCAASGFTFSSYGMSWVRQAPGKGLEWVSAISGSGGGTYYADSVKGRFTISRDNSKNTLYLQMNSLRAEDTAVYYCASSSSWQFDYWGQGTLVTVSS
VL: QSALTQPASVSGSPGQSITISCTGTSSGVGSYNLVSWYQQHPGKAPKLMIYEGSQRPSGVSNRFSGSKSGNTASLTISGLQAEDEADYYCCSYAGSSTHYVFGGGTKLTVL
In the case of B12, the “ELISA (Avg)” value in assay [9] and in assay [14] was 17.7 in each case. In assay [10], the EC50 was 2.28 nM. The Kd is 3240 nM in assay [11] and 520 nM in [12].

B13: 1-4 (antibody, V domains shown)
VH: EVQLLESGGGLVQPGGSLRLSCAASGFTFSSQAMSWVRQAPGKGLEWVSAISGSGGGTYYADSVKGRFTISRDNSKNTLYLQMNSLRAEDTAVYYCAKDRRFGEFDPWGQGTLVTVSS
VL: QSALTQPASVSGSPGQSITISCTGTSSDVGTYNLVSWYQQHPGKAPKLMIYEGSQRPSGVSNRFSGSKSGNTASLTISGLQAEDEADYYCCSYAGSSSFVVFGGGTKLTVL
Take B13: the “ELISA (Avg)” value in assay [9] and in assay [14] was 20.6 throughout. In assay [10], this molecule came in with an EC50 of 2.56 nM. In addition, the results for the Kd in assay [11] and in assay [12] were 25.5 nM and 659 nM, respectively.
